The RNAGym collection of RNA variant scans (doi:10.1073/pnas.2313332121)

B1: TPR t1 (parent)
chain: GACCAAUCUGCCCUCAGAGCUCGAGAACAUCUUCGGAUGCAGAGGAGGCAGGCUUCGGUGGCGCGAUAGCGCCAACGUCCUCAACCUCCAAUGCAUCCCACCACAUGAUGAUGCCUGAAGAGCCUUGGUUUUUUG

Variants of: B1
Assay: polymerase ribozyme fitness, log enrichment relative to wild type (log ratio); higher = more active; in vitro selection for triplet polymerase activity
Outline: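 Each subunit of a heterodimeric triplet polymerase ribozyme was mutagenized into a library by PCR, transcribed, and subjected to one round of in vitro selection, run in triplicate. Libraries were annealed with a biotinylated primer, the partner subunit and triplets, incubated frozen at −7 °C, and extended constructs were gel-excised, captured on streptavidin beads and recovered by RT-PCR. Input and output libraries were sequenced on Illumina, keeping genotypes with ≥10 input reads and ≥1 read per output. Fitness is log base 2 of genotype enrichment divided by wild-type enrichment, from inverse-variance-weighted replicate averages.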

Row | Variant | polymerase ribozyme fitness (log ratio)
1 | C62G G69U | -5.17
2 | C31A G44U G47C U78G G120C G127U | -6.6
3 | C15U G42C A74U | -3.74
4 | C8A G36C G60U | -0.605
5 | U7G G45C C72G C82A C98A | -5.33
6 | C53G C94A U132A | -1.31
7 | G42C U78A C85U C123G G135U | -2.89
8 | G61A C115A | 0.519
9 | A29G G61A C99A U112C C124A G135C | -5.36
10 | A43C A50G G61A C115A U116C | -4.2
11 | A29U G45C C115A U133A | -3.42
12 | C13U C20A C72A | -2.75
13 | G17U U87G | -2.25
14 | U33C A43U | -5.07
15 | G63C C123A | 0.07
16 | A6C G36C | -1.4
17 | C12A C13G G45C A119U C124A U132A | 0.6
18 | C20A G48U A50U G120U U132C | -4.56
19 | A26G C124G | 0.285
20 | G42A U54C G57A | -3.66
21 | G93U A100U | -1.72

Row | Variant | polymerase ribozyme fitness (log ratio)
22 | G36A G42A A43C C53U | -3.85
23 | G44C U81A C89U G110U | -4.45
24 | G47U C101A | -2.91
25 | A6U U30C G39U C97U C104U | -4
26 | C76U A83U | -0.0435
27 | C11G U32C A41G G45A A90C U96C C98U U106G A111U | -6.91
28 | C15A C49A U55G A74C U81G A90G G117U | -3.52
29 | C114U U132A | -1.1
30 | C22A G61A U129G | -5.57
31 | G17U G60U U81A | -3.3
32 | C82A G93C C115U G122A | -3.46
33 | C56G U130C | -1.02
34 | G10U G42A G45A G77C U78G U96C G128A U131G | -3.17
35 | C11A G71C U125G G135U | -3.28
36 | A2G C20U G60C | -1.66
37 | G17A G52U | -4.1
38 | G48C G63C | -2.72
39 | C8A C12G C64U G110U | -0.685
40 | A5G C8G G52C C79U | 0.0143
41 | A18G C22G A27U G117C | -4.21
42 | G52A C56A | -0.146

Row | Variant | polymerase ribozyme fitness (log ratio)
43 | G42C C49A | -1.88
44 | C8G G42C C70G | -5.8
45 | C28G G58C C94A | -3.94
46 | U9C C20G C101U G113U | -0.203
47 | C13G G17U U38A C49G G61U | -4.63
48 | U33C G69A A83C U96C A119U C124A G127U | -5.27
49 | A6C C8G G44C C64U U78C | -1.41
50 | C3G C8G G117A G120A G135U | -1.6
51 | C62G G128A | -2.8
52 | C22G G61A C62U C104U G120A | -4.48
53 | C11G C28A U112A | -1.33
54 | A2U C88A A121U | -0.332
55 | C3U G60C | -0.334
56 | A105C U112C | 0.139
57 | G36U C89A | -2.46
58 | C8U G39A C94G C99U | -4.71
59 | G47C G77U A100U | -1.79
60 | G60U A84G G128A | -1.56
61 | A43C G61A | -2.52
62 | C13A C53U G120U | -1.1
63 | C15G G36A | -4.46

Row | Variant | polymerase ribozyme fitness (log ratio)
64 | G60U U78G C79A G110A U126C | -4.68
65 | A26U G71A C94U C123G U132C | -2.78
66 | A46C G69C C85A | -3.49
67 | G63A A119G | -0.0262
68 | C62G G117A U131G | -4.48
69 | C15U C94A | -2.56
70 | C34U C73A | -4.32
71 | A5G A74G A118C | -3.85
72 | A26G G93A | -2.29
73 | C79G C114A C115G | -6.59
74 | C8G G128U U130C | 0.904
75 | C4A G10U A84G | -2.55
76 | A2U G61A | -2.17
77 | C15A U59A U126A | -4.53
78 | A37U C79A U87G U96A A118U | -0.000648
79 | U7A U9G C70U C73U C79G A84G U96C | -4.92
80 | C20U U112A G120A | -0.897
81 | G10U A50U C89G | -2.96
82 | C11U C15A C49A C73G C85A G120A | -4.65
83 | C34A G36C G45C U112G | -5.74
